Measurements as given in paper PMC3787020.
Blank lines part the entries; values can stand above or below the substance they belong to.

How the values were obtained:
[1] = target: C33S mutant human TGF-β1 (pro-TGF-β1 and latent TGF-β1), expressed in murine BW5147 T cells (human); experiment: non-reducing SDS-PAGE and western blot of immunoprecipitates; anti-GARP IP products of cell lysates; SDS-PAGE under non-reducing conditions; WB with anti-LAP antibodies
[2] = target: wild type human TGF-β1 (pro-TGF-β1 and latent TGF-β1), expressed in 293 cells (human); experiment: non-reducing SDS-PAGE and western blot of culture supernatants; cells incubated in serum-free medium for 24 or 48 hours; supernatants analysed by WB under non-reducing conditions with anti-GARP and anti-LAP antibodies
[3] = target: TGF-β1 (pro-TGF-β1 and latent TGF-β1), endogenous in human T cells (human (endogenous in human T cells)); experiment: as above
[4] = target: C33S mutant human TGF-β1 (pro-TGF-β1 and latent TGF-β1), expressed in 293 cells (human); experiment: non-reducing SDS-PAGE and western blot of immunoprecipitates; anti-GARP IP products of cell lysates; SDS-PAGE under non-reducing conditions; WB with anti-LAP antibodies

stoichiometry N [1]: 2
Substance: C33S mutant human TGF-β1 (pro-TGF-β1 and latent TGF-β1), expressed in murine BW5147 T cells (ligand)

stoichiometry N [2]: 2
Substance: wild type human TGF-β1 (pro-TGF-β1 and latent TGF-β1), expressed in 293 cells (ligand)

stoichiometry N [3]: 2
Substance: TGF-β1 (pro-TGF-β1 and latent TGF-β1), endogenous in human T cells (ligand)

stoichiometry N [4]: 2
Substance: C33S mutant human TGF-β1 (pro-TGF-β1 and latent TGF-β1), expressed in 293 cells (ligand)
